In US9856460B2, “Nucleic acids encoding synthetic scaffolds and host cells genetically modified with the nucleic acids” (The Regents of the University of California, priority 2008, dated 2018):
“Also recorded” adds a separate entry of the source.

Tested on: mevalonate biosynthetic pathway
Test: Mevalonate production with synthetic scaffolds in E. coli
Assay type: cell-based, Escherichia coli
Procedure: The scalability of the co-recruitment strategy was tested by building separate scaffold devices capable of co-localizing multiple enzymes. Scaffolds provide a means for physically separating the binding elements for design control from the catalytic activities. Thus, the only modification to the enzyme necessary for gaining modular control over complex formation is the addition of a single interaction ligand to each enzyme. A peptide ligand specific for a corresponding protein-protein interaction domain was recombined to the C-terminus of each enzyme of the mevalonate biosynthetic pathway (FIG. 3a). Scaffolds were built by tethering together, via flexible nine amino acid glycine-serine linkers, different numbers of three protein-protein interaction domains from metazoan genomes: the GTPase Binding Domain (GBD) from the actin polymerization switch N-WASP, the SH3 domain, and the PSD95/DlgA/Zo-1 (PDZ) domain from the adaptor protein syntrophin (see Table 1, below).
By varying the number of repeats of these interaction domains, the ratio of individual pathway enzymes co-localized to the resultant complex could be controlled. Scaffolds were built with a single GBD domain for recruiting AtoB and varying numbers of SH3 and PDZ domains for recruiting HMGS and HMGR, respectively. A matrix of scaffolds was made with the architecture (N-terminal to C-terminal) of GBDxSH3yPDZz where x=1 and y and z were varied to be 1, 2, or 4. For separate inducible control, the pathway enzymes were placed under transcriptional control of the tetracycline-inducible promoter (Ptet), and the scaffolds were under transcriptional control of the arabinose-inducible promoter (PBAD). In an effort to lower the metabolic load imposed on the production host, mevalonate production experiments were conducted with low expression levels of the mevalonate pathway enzymes (7 nM aTc) and a high scaffold expression level (250 μM arabinose) to improve pathway efficiency.

B1: G1S2P2: optimized scaffold polypeptide with 1, 2, and 2 repeats of GBD, SH3, and PDZ domains (SEQ ID NO:37) (protein)
chain: MTKADIGTPSNFQHIGHVGWDPNTGFDLNNLDPELKNLFDMCGISEAQLKDRETSKVIYDFIEKTGGVEAVKNELRRQAPGSGSGSGGSMAEYVRALFDFNGNDEEDLPFKKGDILRIRDKPEEQWWNAEDSEGKRGMIPVPYVEKYGSGSGSGGSMAEYVRALFDFNGNDEEDLPFKKGDILRIRDKPEEQWWNAEDSEGKRGMIPVPYVEKYGSGSGSGGSMLQRRRVTVRKADAGGLGISIKGGRENKMPILISKIFKGLAADQTEALFVGDAILSVNGEDLSSATHDEAVQALKKTGKEVVLEVKYMKEVSPYFKGSGSGSGGSMLQRRRVTVRKADAGGLGISIKGGRENKMPILISKIFKGLAADQTEALFVGDAILSVNGEDLSSATHDEAVQALKKTGKEVVLEVKYMKEVSPYFKGS
Q: Which “change in mevalonate production with increasing concentrations of glycerol” value (glycerol as carbon source, increases saturated at approximately 4% glycerol) does the source give for B1 here?
A: improved dramatically; also recorded: significant increases

Q: And the “fold increase in mevalonate production compared to the unscaffolded pathway (G0S0P0)” value (low pathway enzyme expression (7 nM aTc), high scaffold expression (250 μM arabinose), 4% glycerol)?
A: 77 fold

Q: What about the “fold more mevalonate than G0S0P0-GFP” value (pathway under pTET, scaffold under pBAD, control expresses GFP instead of scaffold) of the same molecule?
A: 77 fold
